In patent US20090047240A1 (CBIO, published 2009):

Key:
Assay in all cases: FRET on MonoMac 6 cells, unstimulated and LPS-stimulated
TLR4 = target: T1, TLR4 (human, UniProt O00206 24-839)
T1 construct: whole, on cells; also called Toll-like receptor 4

CD14 = target: T2, CD14 (human, UniProt P08571 20-345)
T2 construct: whole, on cells
T2 sequence (looked up): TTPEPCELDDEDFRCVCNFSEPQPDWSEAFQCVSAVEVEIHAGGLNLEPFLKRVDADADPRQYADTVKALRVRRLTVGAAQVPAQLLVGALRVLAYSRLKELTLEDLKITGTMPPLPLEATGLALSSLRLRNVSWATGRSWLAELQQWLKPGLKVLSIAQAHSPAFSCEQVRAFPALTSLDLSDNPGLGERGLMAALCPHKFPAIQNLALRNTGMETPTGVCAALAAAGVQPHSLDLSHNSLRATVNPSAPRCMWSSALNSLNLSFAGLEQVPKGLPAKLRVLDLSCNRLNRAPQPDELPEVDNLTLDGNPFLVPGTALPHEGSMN

Hsp70 = target: T3, Hsp70 (human, UniProt P0DMV8 2-641)
T3 construct: whole, on cells

CXCR4 = target: T4, CXCR4 (human, UniProt P61073 1-352)
T4 construct: whole, on cells

Measured: binding result

T3 sequence (P0DMV8 2-641): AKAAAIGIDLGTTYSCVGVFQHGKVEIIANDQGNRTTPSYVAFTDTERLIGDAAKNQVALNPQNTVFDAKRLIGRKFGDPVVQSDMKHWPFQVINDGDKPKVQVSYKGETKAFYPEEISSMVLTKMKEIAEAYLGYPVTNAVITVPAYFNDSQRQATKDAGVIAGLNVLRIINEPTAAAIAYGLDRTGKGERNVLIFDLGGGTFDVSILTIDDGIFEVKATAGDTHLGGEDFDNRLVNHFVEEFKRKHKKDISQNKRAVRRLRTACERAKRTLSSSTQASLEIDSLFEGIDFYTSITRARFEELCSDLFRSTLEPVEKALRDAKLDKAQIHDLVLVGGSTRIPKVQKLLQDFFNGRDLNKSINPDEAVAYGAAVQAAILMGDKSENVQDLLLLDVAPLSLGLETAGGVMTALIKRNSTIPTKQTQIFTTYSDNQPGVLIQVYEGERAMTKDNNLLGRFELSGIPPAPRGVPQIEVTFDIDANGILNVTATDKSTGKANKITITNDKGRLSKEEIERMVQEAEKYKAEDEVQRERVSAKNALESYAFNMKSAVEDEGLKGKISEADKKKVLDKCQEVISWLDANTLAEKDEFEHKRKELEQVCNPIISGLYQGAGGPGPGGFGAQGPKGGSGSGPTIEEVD
T1 sequence (O00206 24-839): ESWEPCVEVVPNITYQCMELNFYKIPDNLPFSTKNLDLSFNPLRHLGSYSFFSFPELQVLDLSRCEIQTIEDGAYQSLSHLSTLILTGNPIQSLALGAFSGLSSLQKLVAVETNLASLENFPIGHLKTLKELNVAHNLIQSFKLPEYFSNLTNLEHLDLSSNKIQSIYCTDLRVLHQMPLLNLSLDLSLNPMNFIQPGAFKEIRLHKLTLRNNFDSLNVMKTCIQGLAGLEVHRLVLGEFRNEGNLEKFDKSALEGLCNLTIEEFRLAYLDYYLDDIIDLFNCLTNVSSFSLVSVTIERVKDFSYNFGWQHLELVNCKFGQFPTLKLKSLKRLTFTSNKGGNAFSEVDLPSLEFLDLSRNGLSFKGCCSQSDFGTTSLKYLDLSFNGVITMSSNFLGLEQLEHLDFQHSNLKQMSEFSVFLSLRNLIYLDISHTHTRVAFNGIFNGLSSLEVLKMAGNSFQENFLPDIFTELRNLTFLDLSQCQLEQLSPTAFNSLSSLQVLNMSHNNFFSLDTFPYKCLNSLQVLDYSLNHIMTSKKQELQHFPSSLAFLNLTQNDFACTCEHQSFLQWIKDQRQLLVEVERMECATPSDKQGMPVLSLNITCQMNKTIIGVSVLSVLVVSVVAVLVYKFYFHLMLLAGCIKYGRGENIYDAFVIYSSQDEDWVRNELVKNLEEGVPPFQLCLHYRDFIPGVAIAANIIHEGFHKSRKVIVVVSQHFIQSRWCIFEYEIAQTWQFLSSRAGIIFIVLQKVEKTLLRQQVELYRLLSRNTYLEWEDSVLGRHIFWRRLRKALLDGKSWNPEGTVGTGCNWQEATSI
T4 sequence (P61073 whole entry): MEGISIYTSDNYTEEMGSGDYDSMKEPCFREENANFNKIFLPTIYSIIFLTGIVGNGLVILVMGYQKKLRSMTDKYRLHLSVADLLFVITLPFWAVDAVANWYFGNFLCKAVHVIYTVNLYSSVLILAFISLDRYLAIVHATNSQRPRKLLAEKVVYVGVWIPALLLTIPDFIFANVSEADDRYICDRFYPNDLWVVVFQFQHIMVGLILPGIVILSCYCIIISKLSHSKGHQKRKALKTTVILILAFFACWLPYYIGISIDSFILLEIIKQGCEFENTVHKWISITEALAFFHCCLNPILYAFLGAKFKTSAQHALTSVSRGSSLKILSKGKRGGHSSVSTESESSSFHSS

B1: E. coli GroES (other)
chain: MNIRPLHDRVIVKRKEVETKSAGGIVLTGSAAAKSTRGEVLAVGNGRILENGEVKPLDVKVGDIVIFNDGYGVKSEKIDNEEVLIMSESDILAIVEA
notes: also called E. coli homologue of Cpn10
no binding: TLR4 | CD14 | Hsp70 | CXCR4
